Here are results for five molecules from patent US20070286858A1 (Pfizer, published 2007).

One test addresses T1, BSA (Bos taurus, UniProt P02769).
T1 construct: control antigen in the ScFv ELISA; also called bovine serum albumin
In words: ELISA of E. coli periplasmic ScFv cross-linked with anti-His antibody, on coated BSA. On the procedure: ActRIIb represents a non-binding protein expressed from the same vector as a negative control. ELISA plates were coated with human RAGE-Fc (5 ug/ml) or BSA (200 ug/ml) in bicarbonate buffer overnight at 4 °C, washed with PBS+tween 0.05% and blocked for 1 hour at room temperature with 2% milk powder PBS. Periplasmic preparations of 20 ml E. coli cultures were performed using standard procedures. The final volume of periplasmic preparations of unpurified ScFv antibodies was 1 ml of which 50 ul was pre-incubated with anti-His antibody at 1/1000 dilution for 1 hour at room temperature in a total volume of 100 ul with 2% milk powder PBS. The cross linked periplasmic preparations were added to the ELISA plate and incubated for a further 2 hours at room temperature. The plates were washed 2 times with PBS+0.05% tween and 2 times with PBS and incubated with rabbit anti-mouse HRP at 1/1000 dilution in 2% milk powder PBS. The plates were washed as before and binding was detected using standard TMB reagents. […] Starting Kd values of the ScFv in both formats as determined by BIACORE™ are used to determine the optimum antigen concentrations for affinity selections.

Test [1] concerns the target T2, human RAGE-Fc fusion protein (human, UniProt Q15109 23-344).
T2 construct: also called hRAGE-Fc; huRAGE-Fc; not shown: Fc domain of human IgG
In words: ELISA of in vitro translated ScFv on coated human RAGE-Fc, anti-Flag detection. The method, then:
ELISA plates coated with human RAGE-Fc (5 ug/ml) or BSA (200 ug/ml) in bicarbonate buffer overnight at 4° C., washed with PBS+tween 0.05% and blocked for 1 hour at room temperature with 2% milk powder PBS. Plates were incubated with in vitro translated ScFv for 2 hours at room temp. Plates were blocked and detection was with anti-Flag antibody (1/1000 dilution) followed by rabbit anti-mouse HRP (1/1000 dilution). […] Values for Kd of the ScFv in both formats as determined by BIACORE™ are used to determine the optimum antigen concentrations for selection experiments.

Test [2] concerns the target T3, soluble human streptavidin-tagged RAGE (human, UniProt Q15109 23-344).
T3 construct: also called hRAGE-SA; human RAGE-strep
In words: BIACORE capture assay, antibody on CM5 chip, hRAGE-SA 0-100 nM in solution. On the procedure:
The assays were performed by coating antibodies onto a CM5 BIA chip with 5000-7000 RU.

The next test addresses T4, baboon RAGE (baboon (Papio cyanocephalus), UniProt Q15109 23-404 (human entry)).
T4 construct: On transfected 293 cells or endogenous in baboon lung sections; also called 293-baboon RAGE; RAGE in baboon lung
T4 chain: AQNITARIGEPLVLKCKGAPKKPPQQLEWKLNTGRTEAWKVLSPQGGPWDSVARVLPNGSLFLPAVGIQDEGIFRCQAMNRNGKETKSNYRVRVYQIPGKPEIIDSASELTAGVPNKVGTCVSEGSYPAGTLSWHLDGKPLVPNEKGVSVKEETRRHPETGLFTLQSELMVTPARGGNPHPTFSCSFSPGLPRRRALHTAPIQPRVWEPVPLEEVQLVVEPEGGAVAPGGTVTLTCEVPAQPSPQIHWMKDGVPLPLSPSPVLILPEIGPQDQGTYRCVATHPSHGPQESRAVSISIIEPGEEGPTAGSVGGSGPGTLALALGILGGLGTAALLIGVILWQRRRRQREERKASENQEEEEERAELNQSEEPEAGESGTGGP
In words: IHC, septic baboon lung, 1 µg/ml. On the procedure:
Immunohistochemistry for RAGE lung tissues isolated from baboon, cynomolgus monkey, rabbit or Chinese Hamster Ovary cells over-expressing human RAGE or control CHO cells were performed using standard techniques. RAGE antibodies and rat IgG2b isotype control or mouse isotype control were used at […]. […] Following detection with HRP and Alexa Fluor 594, Alexa Fluor 488 or anti-biotin conjugated with FITC, sections were also stained with 4′-6-Diamidino-2-phenylindole (DAPI).
CHO cells stable transfected with an expression vector that expresses DNA encoding hRAGE is used as a positive control.

For test [3], the target named is T3, soluble human streptavidin-tagged RAGE. Nature of the test: BIACORE capture, hRAGE-SA over captured antibody, 1:1 Langmuir global fit, row Average. The method, then: (§1) The assays were performed by coating anti-human Fc antibodies onto a CM5 BIA chip with 5000 RU (pH 5.0, 7 min.) in flow cells 1-4. Each antibody was captured by flowing at 2.0 μg/ml over the anti-Fc antibodies in flow cells 2-4 (flow cell 1 was used as a reference).

The target is the same in test [4]. In words: BIACORE capture, hRAGE-SA over captured antibody, 1:1 Langmuir global fit, FC3. On the procedure:
as §1

The target is the same in test [5]. Nature of the test: BIACORE capture, hRAGE-SA over captured antibody, steady state affinity, row Average. The method, then:
as §1

For test [6] the target is unchanged. In words: BIACORE capture, hRAGE-SA over captured antibody, 1:1 Langmuir global fit, FC4. The method, then: as §1
In test [7] the target is T5, murine RAGE-strep tag fusion protein (mouse, UniProt Q62151 23-343).
T5 construct: also called mRAGE-strep; mRAGE-SA
T5 chain: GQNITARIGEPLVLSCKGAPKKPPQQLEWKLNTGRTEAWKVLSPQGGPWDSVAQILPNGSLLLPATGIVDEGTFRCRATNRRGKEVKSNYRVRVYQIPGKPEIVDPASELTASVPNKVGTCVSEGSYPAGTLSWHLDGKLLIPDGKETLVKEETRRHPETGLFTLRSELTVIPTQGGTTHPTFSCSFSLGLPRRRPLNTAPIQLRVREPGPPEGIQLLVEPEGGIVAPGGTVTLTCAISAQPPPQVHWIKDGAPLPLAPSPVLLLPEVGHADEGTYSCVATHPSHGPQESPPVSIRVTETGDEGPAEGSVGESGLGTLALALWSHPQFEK
Nature of the test: BIACORE capture, SA-Mu RAGE over captured antibody, 1:1 Langmuir global fit, FC4. On the procedure: as §1

Test [8] deals with T3, soluble human streptavidin-tagged RAGE. Nature of the test: BIACORE capture, hRAGE-SA over captured antibody, steady state affinity, FC4. The method, then: as §1
Test [9] shares this target. In words: BIACORE capture, hRAGE-SA over captured antibody, 1:1 Langmuir global fit, FC2. The method, then: as §1
For test [10] the target is unchanged. In words: BIACORE capture, hRAGE-SA over captured antibody, steady state affinity, FC2. The method, then: as §1
For test [11], the target named is T5, murine RAGE-strep tag fusion protein. Nature of the test: BIACORE capture, SA-Mu RAGE over captured antibody, 1:1 Langmuir global fit, row Average. The method, then: as §1
Test [12] has the same target. In words: BIACORE capture, SA-Mu RAGE over captured antibody, 1:1 Langmuir global fit, FC2. On the procedure:
as §1

For test [13] the target is unchanged. In words: BIACORE capture, SA-Mu RAGE over captured antibody, 1:1 Langmuir global fit, FC3. The method, then:
as §1

The target in test [14] is T3, soluble human streptavidin-tagged RAGE. In words: BIACORE capture, hRAGE-SA over captured antibody, steady state affinity, FC3. On the procedure:
as §1

Where a chain is given by its changes, count along the chain named.

T1 sequence (P02769 25-607 limits assumed): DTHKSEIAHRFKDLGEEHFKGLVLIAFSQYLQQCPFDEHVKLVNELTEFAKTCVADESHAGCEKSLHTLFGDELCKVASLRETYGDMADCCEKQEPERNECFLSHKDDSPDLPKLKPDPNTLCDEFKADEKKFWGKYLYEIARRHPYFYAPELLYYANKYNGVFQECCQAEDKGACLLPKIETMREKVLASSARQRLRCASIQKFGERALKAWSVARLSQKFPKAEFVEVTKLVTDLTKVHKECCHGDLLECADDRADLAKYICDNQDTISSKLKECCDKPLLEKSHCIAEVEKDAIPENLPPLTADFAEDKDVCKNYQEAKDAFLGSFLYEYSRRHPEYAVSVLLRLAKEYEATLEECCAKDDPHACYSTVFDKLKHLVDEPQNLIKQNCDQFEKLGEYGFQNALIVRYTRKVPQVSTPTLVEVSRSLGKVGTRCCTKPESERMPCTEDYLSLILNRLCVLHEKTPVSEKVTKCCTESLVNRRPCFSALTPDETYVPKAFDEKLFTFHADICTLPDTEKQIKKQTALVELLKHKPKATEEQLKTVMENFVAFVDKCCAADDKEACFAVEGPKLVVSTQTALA

B1: XT-H2 VL-VH ScFv construct (scFv)
scFv: DVVLTQTPLSLPVNIGDQASISCKSTKSLLNSDGFTYLDWYLQKPGQSPQLLIYLVSDRFSGVPDRFSGSGSGTDFTLTISRVEAEDLGVYYCFQSNSLPLTFGSGTKLEIKDGGGSGGGGSGGGGSSQVQLQQSGAELAKPGASVKMSCKASGYTFTTYWMHWVKQRPGQGLYWIGYINPSTGYTEYNQKFKDKATLTADKSSSTAYMQLSSLTSEDSAVYYCARWAGYTIDYWGQGTSVTVSS
notes: Tags (Flag when translated in vitro, His when made in E. coli) are inferred from the detection antibodies
As for B1, the values for the binding result (with BSA; in [1]) were “no binding” and “binds”, respectively.

B2: XT-H5 (antibody, mouse IgG1, V domains shown)
VH: EVLLQQSGPELVKPGASVKISCKASGYTFTDYNMDWVKQSHGKSLEWIGDINPDNGGTIYKQKFKGKATLTVDKSSSTAYMELRSLTSEDTAVYYCTTHDHYYYALDYWGQGTSVTVSS
VL: not shown
notes: also called 1hRAGEP3/55
In test [2], B2 came in with a Ka of 3.69e+08 M⁻¹, a Kd of 2.71 nM, a koff of 0.00451 s⁻¹ and a kon of 1.66e+06 M⁻¹ s⁻¹. In addition, the binding result with baboon RAGE is given as “binds”.

B3: XT-M4-V14 (antibody, V domains shown)
VH: EVQLVESGGGLVQPGGSLRLSCAASGFTFNNYWMTWVRQAPGKGLEWVASIDNSGDNTYYPDSVKDRFTISRDNAKNSLYLQMNSLRAEDTAVYYCARGGDITTGFDYWGQGTLVTVSS
VL: DIQMTQSPSSLSASVGDRVTITCRASQDVGIYVNWFQQKPGKAPKRLIYRATNLADGVPSRFSGSRSGTDFTLTISSLQPEDFATYYCLEFDEHPLTFGGGTKVEIK
With B3, the Kd in test [3] came out at 12.9 nM; in test [4], 11.7 nM; in test [5], 16 nM; in test [6], 13.2 nM; in test [7], 2 nM; in [8] it was 16 nM. Further, the Kd in [9] amounted to 13.8 nM; in [10], 16 nM; in [11], 2 nM; in test [12], 2 nM; in [13] it was 1.9 nM; in [14], 15 nM. Further, the koff in test [3] is 0.0497 s⁻¹; in test [4] it was 0.0464 s⁻¹; in [6] it was 0.0661 s⁻¹; in [7] it was 0.0041 s⁻¹; in test [9], 0.0366 s⁻¹; in test [11], 0.0042 s⁻¹. For the same molecule, the values for the off-rate (koff) in test [12] and in test [13] were 0.0043 s⁻¹ and 0.004 s⁻¹, respectively. The kon in [3] came out at 3.88e+06 M⁻¹ s⁻¹; in test [4] it was 3.96e+06 M⁻¹ s⁻¹; in test [6], 5.02e+06 M⁻¹ s⁻¹; in test [7], 2.1e+06 M⁻¹ s⁻¹; in test [9], 2.66e+06 M⁻¹ s⁻¹; in test [11], 2.1e+06 M⁻¹ s⁻¹. In addition, the on-rate constant (kon) in [12] worked out at 2.2e+06 M⁻¹ s⁻¹; in test [13], 2.1e+06 M⁻¹ s⁻¹.

B4: XT-M4-V11 (antibody, V domains shown)
VH: B3 VH
VL: B3 VL with K45R
As for B4, the Kd in test [3] stood at 12.5 nM; in test [4], 12 nM; in [5], 16 nM; in [6] it was 13 nM; in [7], 2 nM; in test [8], 17 nM. Moreover, the Kd in [9] was 13 nM; in test [10], 16 nM; in test [11], 2 nM; in [12], 2 nM; in [13], 2 nM; in test [14] it was 15 nM. Also, the off-rate constant (koff) in [3] amounted to 0.0374 s⁻¹; in test [4] it was 0.039 s⁻¹; in test [6] it was 0.041 s⁻¹; in test [7], 0.0041 s⁻¹; in test [9] it was 0.033 s⁻¹; in [11], 0.0042 s⁻¹. The values for the koff in test [12] and in test [13] were 0.0043 s⁻¹ and 0.0042 s⁻¹, respectively. Further, the kon in test [3] was found to be 3.01e+06 M⁻¹ s⁻¹; in [4] it was 3.4e+06 M⁻¹ s⁻¹; in test [6], 3.2e+06 M⁻¹ s⁻¹; in test [7], 2e+06 M⁻¹ s⁻¹; in [9], 2.5e+06 M⁻¹ s⁻¹; in test [11], 2.1e+06 M⁻¹ s⁻¹. Moreover, the kon amounted to 2.2e+06 M⁻¹ s⁻¹ in test [12] and 2.1e+06 M⁻¹ s⁻¹ in test [13].

B5: XT-M4 VL-VH ScFv construct (scFv)
scFv: DIQMTQSPSSMSVSLGDTITITCRASQDVGIYVNWFQQKPGKSPRRMIYRATNLADGVPSRFSGSRSGSIYSLTISSLESEDVADYHCLEFDEHPLTFGSGTKVEIKDGGGSGGGGSGGGGSSEVQLVESGGGLVQPGRSLKLSCVVSGFTFNNYWMTWIRQTPGKGLEWVASINNSGDNTYYPDSVKDRFTISRDNAKSTLYLQMNSLRSEDTATYYCTRGGDITTGFDYWGQGVMVTVSS
notes: Tags (Flag in vitro, His in E. coli) inferred from detection
As to B5, the values for the binding result (with BSA; in [1]) were “no binding” and “binds”, respectively.
